Laboratory results taken from patent publication US20100196392A1 (Kyowa Kirin, published 2010).
Changes are numbered by the printed parent chain. One block for each binder: values may come before it.

Key:
[1] = molecular target: T1, human ASCT2 (system ASC amino acid transporter 2), endogenous on human cancer cell lines KMS-11, OPM-2, WiDr … (human, UniProt Q15758 1-541); test: flow cytometry on KMS-11 cells
T1 construct: also called SLC1A5
T1 sequence: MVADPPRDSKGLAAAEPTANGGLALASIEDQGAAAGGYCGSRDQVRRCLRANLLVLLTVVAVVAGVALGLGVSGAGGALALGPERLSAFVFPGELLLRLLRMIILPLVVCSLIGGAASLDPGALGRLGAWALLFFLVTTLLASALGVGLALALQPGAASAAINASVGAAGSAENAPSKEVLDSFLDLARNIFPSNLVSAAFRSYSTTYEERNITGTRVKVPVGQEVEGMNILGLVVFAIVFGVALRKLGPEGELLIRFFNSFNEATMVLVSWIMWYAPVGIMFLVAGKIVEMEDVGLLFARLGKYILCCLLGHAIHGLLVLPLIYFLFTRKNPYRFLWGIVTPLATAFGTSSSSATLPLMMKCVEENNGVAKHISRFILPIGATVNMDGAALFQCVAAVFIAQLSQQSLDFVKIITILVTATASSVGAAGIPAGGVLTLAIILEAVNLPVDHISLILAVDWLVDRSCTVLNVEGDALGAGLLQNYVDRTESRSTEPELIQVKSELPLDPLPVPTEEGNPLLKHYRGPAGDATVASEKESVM
Protocol: (§1) The human ASCT2-myc/His gene-introduced CHO cell obtained in Example 2, the vector-introduced CHO cell and the multiple myeloma cell line KMS-11 (HSRRB No. JCRB1179) were respectively cultured in a 5% CO₂ incubator for 3 to 4 days at 37° C. The human ASCT2-myc/His gene-introduced CHO cells and the vector-introduced CHO cells were peeled off with a 0.02% EDTA solution (manufactured by Nacalai Tesque) and washed with a mixed solution of PBS, 0.02% EDTA and 0.05% sodium azide. Additionally, in order to avoid the non-specific adsorption of antibodies, the cells were blocked for 30 minutes at ice temperature using 1% BSA-PBS for the human ASCT2-myc/His gene-introduced CHO cells and the vector-introduced CHO cells, and using 100 μg/mL of human IgG (manufactured by Sigma) for KMS-11. The cells were seeded into a 96-well U-bottom plate so as to give a density of 1×10⁵ to 5×10⁵ cells/100 μL/well and centrifuged at 1,500 rpm for 5 minutes (05PR-22, manufactured by Hitachi Koki) and then the supernatant was removed. The test substances as the primary antibody, i.e., the purified antibodies and rat IgG2a-UNLB (negative control, manufactured by Beckman Coulter) or KM511 {negative control, anti-G-CSF derivative antibody, [Agric. Biol. Chem., 53, 1095 (1989)], mouse IgG1} were diluted to give a final concentration of 10 μg/mL in a mixed solution (hereinafter, referred to as “Dilution Solution A”) of 1% BSA-PBS, 0.02% EDTA and 0.05% sodium azide and the resulting solution was added at the volume of 100 μL/well, followed by reaction for 60 minutes at ice temperature. […] Washing with Dilution Solution A was carried out three times again, the cells were suspended in PBS and the fluorescence intensity was measured by a flow cytometer (Cytomics FC500 MPL, manufactured by Beckman Coulter).

[2] = molecular target: T2, human ASCT2-myc/His (fusion protein in which myc/His was added to the C-terminal of human ASCT2), expressed … (human, UniProt Q15758 1-541); test: flow cytometry on human ASCT2-myc/His CHO cells
T2 construct: Also used as cell lysate in Western blotting and immunoprecipitation; also called ASCT2/CHO; human ASCT2-myc/His gene-introduced CHO cells
T2 sequence: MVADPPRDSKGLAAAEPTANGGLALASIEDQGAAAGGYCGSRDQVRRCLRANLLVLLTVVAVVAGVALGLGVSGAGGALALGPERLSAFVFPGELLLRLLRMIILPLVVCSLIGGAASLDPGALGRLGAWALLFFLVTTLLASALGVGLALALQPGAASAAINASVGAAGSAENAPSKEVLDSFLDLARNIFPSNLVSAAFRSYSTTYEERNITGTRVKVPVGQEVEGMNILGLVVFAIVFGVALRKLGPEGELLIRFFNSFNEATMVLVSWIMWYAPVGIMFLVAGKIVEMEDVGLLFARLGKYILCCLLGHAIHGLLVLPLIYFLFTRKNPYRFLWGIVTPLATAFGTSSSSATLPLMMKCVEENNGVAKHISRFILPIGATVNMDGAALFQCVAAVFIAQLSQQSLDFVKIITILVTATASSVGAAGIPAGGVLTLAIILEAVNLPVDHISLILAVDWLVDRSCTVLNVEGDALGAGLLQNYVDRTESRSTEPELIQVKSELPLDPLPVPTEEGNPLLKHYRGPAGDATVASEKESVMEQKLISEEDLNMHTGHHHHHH
Protocol: as §1

[3] = molecular target: T1, human ASCT2 (system ASC amino acid …); test: flow cytometry on OPM-2 cells, 0.01 to 10 ug/mL
Protocol: (§2) Each of the human ASCT2-myc/His gene-introduced CHO cell obtained in Example 2, and the multiple myeloma cell line OPM-2 (DSMZ Accession No. ACC50) was cultured in a 5% CO₂ incubator for 3 to 4 days at 37° C. The human ASCT2-myc/His gene-introduced CHO cells were peeled off with a 0.02% EDTA solution (manufactured by Nacalai Tesque), and in order to avoid the non-specific adsorption of antibodies, the cells were blocked for 30 minutes at ice temperature using 1% BSA-PBS. The cells were seeded into a 96-well U-bottom plate so as to give a density of 1×10⁵ to 5×10⁵ cells/100 μL/well. The plates were centrifugation at 1,500 rpm for 5 minutes (05PR-22, manufactured by Hitachi Koki), and then the supernatant was removed. As the primary antibody, the purified antibody which was a test substance was diluted to give a final concentration of 0.01 μg/mL to 10 μg/mL in 1% BSA-PBS, and dispensed to the plate at 100 μL/well, followed by reaction at ice temperature for 60 minutes. After washing the cells with 1% BSA-PBS, FITC-labeled anti-human immunoglobulin G (H+L) (manufactured by Jackson Laboratories) diluted with 1% BSA-PBS was added as the secondary antibody, followed by reaction at ice temperature for 30 minutes under shading. The cells were washed with 1% BSA-PBS and then suspended in PBS. The fluorescence intensity of the cells was measured by a flow cytometer (Cytomics FC500 MPL, manufactured by Beckman Coulter).

[4] = molecular target: T2, human ASCT2-myc/His (fusion protein in …); test: flow cytometry on human ASCT2-myc/His CHO cells, 0.01 to 10 ug/mL
Protocol: as §2

[5] = molecular target: T3, mouse ASCT2-myc/His, expressed on CHO cells (mouse, UniProt P51912 1-553); test: flow cytometry on mouse ASCT2/CHO cells
T3 construct: also called mouse ASCT2/CHO
T3 sequence: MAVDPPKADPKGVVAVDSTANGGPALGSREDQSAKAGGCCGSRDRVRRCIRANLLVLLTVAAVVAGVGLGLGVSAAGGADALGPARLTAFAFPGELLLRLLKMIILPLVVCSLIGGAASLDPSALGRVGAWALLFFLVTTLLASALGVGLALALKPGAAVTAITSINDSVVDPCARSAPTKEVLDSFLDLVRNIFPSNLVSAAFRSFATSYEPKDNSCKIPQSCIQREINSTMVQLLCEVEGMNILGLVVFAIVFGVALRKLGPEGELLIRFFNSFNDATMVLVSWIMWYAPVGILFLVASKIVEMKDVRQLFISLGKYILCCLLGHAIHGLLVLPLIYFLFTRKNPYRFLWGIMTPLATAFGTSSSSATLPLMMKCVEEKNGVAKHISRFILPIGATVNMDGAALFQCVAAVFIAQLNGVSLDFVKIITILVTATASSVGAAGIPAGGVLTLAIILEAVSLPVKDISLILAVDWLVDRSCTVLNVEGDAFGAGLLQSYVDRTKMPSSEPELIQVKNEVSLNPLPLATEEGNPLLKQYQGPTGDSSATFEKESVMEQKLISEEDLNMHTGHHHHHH

B1: anti-ASCT2 monoclonal antibody KM4008 (hybridoma KM4008, FERM BP-10962) (antibody, V domains shown)
VH: QIQLVQSGPELKKPGETVKISCKASGYTFTTFGMSWVKQVPGKGLKWMGWIHTYAGVPIYGDDFKGRFAFSLETSASTAYLQINNVKNEDTATYFCARRSDNYRYFFDYWGQGTTLTVSS
VL: DIQMTQTTSSLSASLGDRVTISCRASQDIRNYLNWYQRKPHGTVKLLIYYTSRLHSGVPSRFSGSGSGTDYSLTISNLEQEDIATYFCQQGHTLPPTFGGGTKLEIKR
notes: Mouse monoclonal antibody
binding result [1]: binds
binding result [2]: binds

B2: anti-ASCT2 human chimeric antibody cKM4008 (antibody, V domains shown)
VH: B1 VH
VL: B1 VL
notes: VH and VL of KM4008 were inserted into vector pKANTEX93, which carries human CH and CL; The SDS-PAGE pattern was consistent with the IgG class
binding result [3]: binds
binding result [4]: binds

B3: anti-ASCT2 monoclonal antibody KM4012 (hybridoma KM4012, FERM BP-10963) (antibody, V domains shown)
VH: B1 VH with F32Y, V40T, A55S, F64S, A76G, T78I, N102G
VL: B1 VL with T7I, R38Q, H41D, H92N
notes: Hybridoma antibody
binding result [1]: binds
binding result [2]: binds

B4: anti-ASCT2 human chimeric antibody cKM4012 (antibody, V domains shown)
VH: B1 VH with F32Y, V40T, A55S, F64S, A76G, T78I, N102G
VL: B1 VL with T7I, R38Q, H41D, H92N
notes: VH and VL of KM4012 were inserted into vector pKANTEX93, which carries human CH and CL; The SDS-PAGE pattern was consistent with the IgG class
binding result [3]: binds
binding result [4]: binds

More lines, now with the values ahead:

binding result [5]: no binding
binding result [1]: binds
binding result [2]: binds
B5: anti-ASCT2 monoclonal antibody KM4018 (antibody, V domains shown)
VH: EVQLVESGGGLVQSGRSIRLSCAASGFSFSNYYMAWVRQAPSKGLEWVASITKGGGNTYYRDSVKGRFTFSRDNAKSTLYLQMDSLRSEDTATYYCARQVTIAAVSTSYFDSWGQGVMVTVSS
VL: DIVLTQSPALAVSLGQRATISCKTNQKVDYYGNSYVYWYQQKPGQQPKLLIYLASNLASGIPARFSGRGSGTDFTLTIDPVEADDTATYYCQQSRNLPYTFGAGTKLELKR
notes: Hybridoma antibody

binding result [3]: binds
binding result [4]: binds
B6: anti-ASCT2 human chimeric antibody cKM4018 (antibody, V domains shown)
VH: B5 VH
VL: B5 VL
notes: VH and VL of KM4018 were inserted into vector pKANTEX93, which carries human CH and CL; The SDS-PAGE pattern was consistent with the IgG class
